Data as given in IntAct's records for PubMed 26455799.

B1: Cilia- and flagella-associated protein 36 (Mus musculus), Q8C6E0 (parent)
chain: MAAEEEDEVEWVVESIAGFLRGPDWSIPILDFVEQKCEVFDDEEESKLTYTEIHQEYKELVEKLLESYLKEIGINEDQFQEACTSPLAKTRTSQAILQPVLAAEDFTIFKAMMVQKNIEMQLQAIRIIQERNGVLPDCLTDGADVVSDLEQEEMKILREVLRKSKEEYDQEEERKRKKQSSEAKMEELPVYTSEAEKMSNSQGDGEHFVQPPSEVKVHFANQSVQPLARKMELLPETSSLTQKGLKIPGLEHASMEGPIANLSALGTEELRQREHYLKQKRDKLLSMRKDTRTKQIQNTEQKGKPTREAEEMTEKPEMTAEEKQTLLKRRLLAEKLKEEVINK
B2: ADP-ribosylation factor-like protein 2 (Mus musculus), Q9D0J4 (parent)
chain: MGLLTILKKMKQKERELRLLMLGLDNAGKTTILKKFNGEDVDTISPTLGFNIKTLEHRGFKLNIWDVGGQKSLRSYWRNYFESTDGLIWVVDSADRQRMQDCQRELQSLLVEERLAGATLLIFANKQDLPGALSCNAIQEALELDSIRSHHWRIQGCSAVTGEDLLPGIDWLLDDISSRVFTAD

Variants of: B1
Conditions: with arl3_mouse Arl3, Q9WUL7
arl3_mouse Arl3, Q9WUL7, sequence (Q9WUL7 whole entry): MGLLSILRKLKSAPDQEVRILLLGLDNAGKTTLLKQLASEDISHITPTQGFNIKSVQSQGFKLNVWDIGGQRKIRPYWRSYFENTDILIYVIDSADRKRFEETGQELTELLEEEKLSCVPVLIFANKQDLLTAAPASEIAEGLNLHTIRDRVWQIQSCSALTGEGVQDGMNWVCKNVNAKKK

Variant | effect of a mutation on the interaction
E44R;L48R | decreasing interaction strength
E44R;E45R | decreasing interaction strength

Results, then the variant that gave them:

effect of a mutation on the interaction | Variant
decreasing interaction strength | L65D;C83R
decreasing interaction strength | L65D;C83R;V100H

Variants of: B2
Conditions: with cfa36_mouse Cfap36, Q8C6E0

effect of a mutation on the interaction | Variant
decreasing interaction strength | MGLLTILKKMKQKERELRLLMLGLDNAGKTTILKKFNGEDVDTISPTLGANIKTLEHRGFKLNIWDVGGQKSLRSYWRNYFESTDGLIWVVDSADRQRMQDCQRELQSLLVEERLAGATLLIFANKQDLPGALSCNAIQEALELDSIRSHHWRIQGCSAVTGEDLLPGIDWLLDDISSRVFTAD [F50A]
decreasing interaction strength | MGLDTILKKMKQKERELRLLMLGLDNAGKTTILKKFNGEDVDTISPTLGFNIKTLEHRGFKLNIWDVGGQKSLRSYWRNYFESTDGLIWVVDSADRQRMQDCQRELQSLLVEERLAGATLLIFANKQDLPGALSCNAIQEALELDSIRSHHWRIQGCSAVTGEDLLPGIDWLLDDISSRVFTAD [L4D]
